Test results published in patent publication US20250011363A1, “OPTIMIZED SHORTENED PEPTIDE THAT BINDS TO ACETYLCHOLINE RECEPTOR, AND USE THEREOF” (SKINMED CO., LTD., priority 2021, published 2025).

target: acetylcholine receptor; experiment: SPR, receptor immobilized, peptide 10 uM

| Binder | Binding affinity (RU) |
| --- | --- |
| RRSVTK [6mer-1-156] | 154 |
| RKHIK [5mer-1075] | 26 |
| KKKKR [5mer-1087] | 11 |
| KANAR [5mer-782] | 32 |
| KEAPK [5mer-794] | 20 |
| RACFR [5mer-1082] | 11 |
| KYTGR [5mer-1079] | 31 |
| KKSLLR [6mer-1-157] | 123 |
| RMEKK [5mer-792] | 31 |
| KTHHR [5mer-1089] | 29 |
| KRLQTK [6mer-1-163] | 147 |
| KFWIR [5mer-789] | 12 |
| KKQIQR [6mer-1-147] | 125 |
| RRLIYR [6mer-1-158] | 131 |
| RACEK [5mer-784] | 21 |
| KRGVRR [6mer-1-151] | 145 |
| RDSHK [5mer-780] | 27 |
| KETHK [5mer-797] | 15 |
| KPDIR [5mer-1097] | 28 |
| RETMK [5mer-798] | 13 |
| RKRQCR [6mer-1-150] | 142 |
| KKPHR [5mer-793] | 19 |
| REEDK [5mer-1093] | 32 |
| KFEKK [5mer-1076] | 21 |
| KRGQYK [6mer-1-164] | 145 |
| KFSVR [5mer-1083] | 31 |
| RRWYSK [6mer-1-166] | 148 |

| Binder | Binding affinity (RU) |
| --- | --- |
| RRWLYK [6mer-1-136] | 148 |
| KKVYYK [6mer-1-142] | 123 |
| KRRFLR [6mer-1-139] | 122 |
| KTKMR [5mer-791] | 26 |
| KKDHK [5mer-778] | 24 |
| KRGVLR [6mer-1-143] | 145 |
| KEAWK [5mer-1078] | 19 |
| KAKKK [5mer-1088] | 16 |
| KKLYSR [6mer-1-154] | 153 |
| RYTHK [5mer-1080] | 25 |
| RYSMK [5mer-1094] | 15 |
| RRVRSR [6mer-1-155] | 127 |
| RPTDK [5mer-1096] | 15 |
| KKWQQR [6mer-1-153] | 146 |
| KRLRRK [6mer-1-159] | 139 |
| KTEHR [5mer-1091] | 29 |
| RCDFR [5mer-776] | 17 |
| RKLYQK [6mer-1-141] | 141 |
| KRGRRR [6mer-1-146] | 139 |
| RTTER [5mer-1085] | 14 |
| KRRYCK [6mer-1-161] | 139 |
| RTKKR [5mer-795] | 20 |
| KISGK [5mer-1090] | 31 |
| RKRYTR [6mer-1-144] | 148 |
| KAEKR [5mer-1095] | 27 |
| RRLFRR [6mer-1-137] | 121 |
| RRWVCK [6mer-1-149] | 131 |

| Binder | Binding affinity (RU) |
| --- | --- |
| KPMVK [5mer-1092] | 12 |
| RTHDR [5mer-1084] | 21 |
| RFNKK [5mer-786] | 29 |
| RKVFQR [6mer-1-145] | 141 |
| KYHGK [5mer-788] | 16 |
| RPNVR [5mer-1081] | 13 |
| RIDPR [5mer-781] | 28 |
| RRVIQR [6mer-1-160] | 149 |
| KNWVR [5mer-796] | 17 |
| KKSLSK [6mer-1-162] | 142 |
| KDNIR [5mer-787] | 17 |
| RRRYQR [6mer-1-167] | 122 |
| KCKVR [5mer-783] | 29 |
| KRVIRR [6mer-1-152] | 154 |
| RIWDR [5mer-1086] | 19 |
| RFHGR [5mer-1098] | 31 |
| RYNWK [5mer-777] | 28 |
| KADMK [5mer-1077] | 12 |
| REAGK [5mer-790] | 33 |
| RKVVTR [6mer-1-138] | 124 |
| RKLRCR [6mer-1-148] | 146 |
| KRQVQR [6mer-1-140] | 148 |
| KYPPR [5mer-779] | 21 |
| KPTIR [5mer-785] | 31 |
| KKWFTK [6mer-1-165] | 148 |
